Reference: patent publication US20240270821A1, “GIP/GLP1/GCG TRI-RECEPTOR AGONISTS AND USES THEREOF” (priority 2023, published 2024)
Starred links: 1 amine or outer side, 2 acyl side, 3 side chain; linkers in the order of their positions; H or OH if unused. Non-standard residues stand in square brackets, D forms with d. Groups on a side chain read outwards from the residue. No end group written: not given here. *: point of attachment. C20 diacid = O=C(O)CCCCCCCCCCCCCCCCCCC(=O)*; C18 diacid = O=C(O)CCCCCCCCCCCCCCCCC(=O)*; αMePhe(2-F) = C[C@](N)(Cc1ccccc1F)C(=O)O; γGlu = O=C(O)[C@H](CCC(=O)[*:2])N[*:1]; αMe4Pal = C[C@](N)(Cc1ccncc1)C(=O)O; αMeY = C[C@](N)(Cc1ccc(O)cc1)C(=O)O; 4Pal = N[C@@H](Cc1ccncc1)C(=O)O; αMeL = CC(C)C[C@](C)(N)C(=O)O; Orn = NCCC[C@H](N)C(=O)O; AEEA = NCCOCCOCC(=O)O; Aib = CC(C)(N)C(=O)O

T1: human GIP receptor (human) (UniProt P48546)
T1 sequence (looked up): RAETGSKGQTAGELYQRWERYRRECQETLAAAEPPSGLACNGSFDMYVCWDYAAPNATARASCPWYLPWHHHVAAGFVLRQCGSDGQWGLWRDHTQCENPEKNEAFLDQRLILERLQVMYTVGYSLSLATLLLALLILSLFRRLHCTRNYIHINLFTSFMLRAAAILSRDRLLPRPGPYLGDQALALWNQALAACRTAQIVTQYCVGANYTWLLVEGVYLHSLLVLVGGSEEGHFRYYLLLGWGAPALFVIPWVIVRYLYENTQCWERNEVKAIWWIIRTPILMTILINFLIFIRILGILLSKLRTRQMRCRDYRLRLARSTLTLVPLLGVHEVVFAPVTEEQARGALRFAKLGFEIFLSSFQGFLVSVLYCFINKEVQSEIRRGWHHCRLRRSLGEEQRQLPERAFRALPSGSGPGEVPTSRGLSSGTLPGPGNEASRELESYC

B1: Example 21 (peptide)
chain: YXQGTFTSDFSKXLDKKAQXAFIEWLLAGGPSSGEPPPSGE
modifications: Aib, αMeL; acylated Lys; C-term amide; synthetic construct; SITE 2: note = 2-Aminoisobutyric Acid; SITE 13: note = alpha-methyl-leucine; SITE 17: note = Lysine is chemically modified through conjugation of the epsilon-amino group of the Lysine side chain with (2-[2-(2-Amino-ethoxy)-ethoxy]-acetyl)-(gamma-Glu)-CO-(CH2) 18-CO2H; SITE 20: n
B2: Example 28 (peptide)
chain: YXQGTFTSDXSKXLDKKAQXAFIEYLLAGGPSSGEPPPSGE
modifications: Aib, 4Pal, αMeL; acylated Lys; C-term amide; synthetic construct; SITE 2: note = 2-Aminoisobutyric Acid; SITE 10: note = 3-(4-Pyridyl)-L-alanine; SITE 13: note = alpha-methyl-leucine; SITE 17: note = Lysine is chemically modified through conjugation of the epsilon-amino group of the Lysine side chain with (2-[2-(2-Amino-ethoxy)-ethoxy]-acetyl)
B3: Example 26 (peptide)
chain: YXQGTFTSDFSKXLDKKAQXQFIEYLLAGGPSSGEPPPSEG
modifications: Lys acylated; Aib, αMeL; C-terminal amide; synthetic construct; SITE 2: note = 2-Aminoisobutyric Acid; SITE 13: note = alpha-methyl-leucine; SITE 17: note = Lysine is chemically modified through conjugation of the epsilon-amino group of the Lysine side chain with (2-[2-(2-Amino-ethoxy)-ethoxy]-acetyl)-(gamma-Glu)-CO-(CH2) 16-CO2H; SITE 20: n
B4: Example 22 (peptide)
chain: YXQGTFTSDFSKXLDKKAQXAFIEYLLAGGPSSGEPPPSEG
modifications: Aib, αMeL; acyl on Lys; C-terminal amide; synthetic construct; SITE 2: note = 2-Aminoisobutyric Acid; SITE 13: note = alpha-methyl-leucine; SITE 17: note = Lysine is chemically modified through conjugation of the epsilon-amino group of the Lysine side chain with (2-[2-(2-Amino-ethoxy)-ethoxy]-acetyl)-(gamma-Glu)-CO-(CH2) 16-CO2H; SITE 20: n
B5: Example 23 (peptide)
chain: YXQGTFTSDFSKXLDKKAQXAFIEYLLAGGPSSGEPPPSGE
modifications: Aib, αMeL, acylated K, C-terminal amide; synthetic construct; SITE 2: note = 2-Aminoisobutyric Acid; SITE 13: note = alpha-methyl-leucine; SITE 17: note = Lysine is chemically modified through conjugation of the epsilon-amino group of the Lysine side chain with (2-[2-(2-Amino-ethoxy)-ethoxy]-acetyl)-(gamma-Glu)-CO-(CH2) 16-CO2H; SITE 20: n
B6: Example 24 (peptide)
chain: YXQGTFTSDFSKXLDKKAQXAFIEYLLAGAPSSGAPPPSEG
modifications: Aib, αMeL; acylated lysine; C-terminal amide; synthetic construct; SITE 2: note = 2-Aminoisobutyric Acid; SITE 13: note = alpha-methyl-leucine; SITE 17: note = Lysine is chemically modified through conjugation of the epsilon-amino group of the Lysine side chain with (2-[2-(2-Amino-ethoxy)-ethoxy]-acetyl)-(gamma-Glu)-CO-(CH2) 18-CO2H; SITE 20: n

Experiments:
[1] = tested on: Intestinal organoid from Göttingen minipig jejunum tissue, 2D monolayer; experiment: Cell based in vitro permeability (Papp) assay; type: in vitro ADME
Description: Intestinal organoid from Göttingen minipig jejunum tissue and its 2D monolayer are generated using the protocol previously described ([…]-Thiele, […].; Wells, J. M., Optimized procedures for generating an enhanced, near physiological 2D culture system from porcine intestinal organoids. […] After 7 days of culture, organoids are dissociated into single cells by TrypLE (GIbco), and the single cell suspension is added in 24-well transparent transwell inserts (0.3 cm^2, Falcon, BD). […] Samples from the basal compartment are collected at 20 min in the presence of C10. Peptide concentrations in the apical and basal compartments are measured by LC/MS, and the apparent permeability coefficient (Papp) is calculated as previously described (Twarog, C.; Liu, K.; O'Brien, P. J.; Dawson, […] head-to-head Caco-2 assay comparison of the mechanisms of action of the intestinal permeation enhancers: SNAC and sodium caprate (C10).

[2] = target: human glucagon receptor (human) (UniProt P47871); experiment: cell-based or functional assay
human glucagon receptor (human), sequence (P47871 26-477): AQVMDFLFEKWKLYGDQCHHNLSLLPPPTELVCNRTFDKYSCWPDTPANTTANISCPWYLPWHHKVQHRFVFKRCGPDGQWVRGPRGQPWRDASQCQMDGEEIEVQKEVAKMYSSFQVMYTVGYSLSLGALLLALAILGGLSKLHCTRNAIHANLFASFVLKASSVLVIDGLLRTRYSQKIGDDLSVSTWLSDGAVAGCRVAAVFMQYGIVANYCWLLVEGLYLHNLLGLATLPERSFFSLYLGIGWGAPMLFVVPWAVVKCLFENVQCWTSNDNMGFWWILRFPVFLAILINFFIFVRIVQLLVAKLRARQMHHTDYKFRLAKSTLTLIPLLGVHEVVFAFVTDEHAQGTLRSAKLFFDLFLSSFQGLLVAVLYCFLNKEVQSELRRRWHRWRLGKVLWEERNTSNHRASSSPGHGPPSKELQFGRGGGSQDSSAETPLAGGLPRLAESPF

[3] = target: T1, human GIP receptor (human); experiment: cell-based or functional assay
[4] = target: hGLP-1R (Homo sapiens, UniProt P43220); experiment: cell-based or functional assay
hGLP-1R, sequence (P43220 24-463): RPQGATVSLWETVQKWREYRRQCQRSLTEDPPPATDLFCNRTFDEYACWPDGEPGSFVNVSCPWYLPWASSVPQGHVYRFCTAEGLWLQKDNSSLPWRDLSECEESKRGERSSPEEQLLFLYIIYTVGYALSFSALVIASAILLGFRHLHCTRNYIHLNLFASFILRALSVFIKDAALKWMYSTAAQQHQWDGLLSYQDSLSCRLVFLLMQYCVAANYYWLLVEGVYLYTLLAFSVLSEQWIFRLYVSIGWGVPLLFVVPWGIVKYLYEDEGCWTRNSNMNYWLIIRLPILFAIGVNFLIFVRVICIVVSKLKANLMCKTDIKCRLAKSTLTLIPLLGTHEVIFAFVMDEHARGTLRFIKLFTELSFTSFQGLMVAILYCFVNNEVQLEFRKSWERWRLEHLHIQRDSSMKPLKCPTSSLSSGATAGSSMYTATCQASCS

[5] = target: human GLP1-R (SNAP-GLP-1R expressed in HEK293 cells) (human) (UniProt P43220); experiment: cell-based or functional assay
human GLP1-R (SNAP-GLP-1R expressed in HEK293 cells) (human), sequence (P43220 24-463): as above

Molecule	Relative Papp (Compared to internal standard) [1]	Relative cAMP EC50 [2] [nM]	cAMP Rel EC50 (in the presence of 1% HSA) [2] [nM]	Relative cAMP EC50 [3] [nM]	cAMP Rel EC50 (in the presence of 1% HSA) [3] [nM]	Relative cAMP EC50 [4] [nM]	cAMP Rel EC50 (in the presence of 1% HSA) [4] [nM]	GLP1R Internalization EC50 [5] [nM]	Internalization % TOP [5] [%]
CC[C@H](C)[C@H](NC(=O)[C@H](Cc1ccccc1)NC(=O)[C@H](C)NC(=O)C(C)(C)NC(=O)[C@H](CCC(N)=O)NC(=O)[C@H](C)NC(=O)[C@H](CCCCNC(=O)COCCOCCNC(=O)CC[C@H](NC(=O)CCCCCCCCCCCCCCCCC(=O)O)C(=O)O)NC(=O)[C@H](CCCCN)NC(=O)[C@H](CC(=O)O)NC(=O)[C@H](CC(C)C)NC(=O)[C@](C)(CC(C)C)NC(=O)[C@H](CCCN)NC(=O)[C@H](CO)NC(=O)[C@H](Cc1ccccc1)NC(=O)[C@H](CC(=O)O)NC(=O)[C@H](CO)NC(=O)[C@@H](NC(=O)[C@H](Cc1ccccc1)NC(=O)[C@@H](NC(=O)CNC(=O)[C@H](CCC(N)=O)NC(=O)C(C)(C)NC(=O)[C@@H](N)Cc1ccc(O)cc1)[C@@H](C)O)[C@@H](C)O)C(=O)N[C@@H](CCC(=O)O)C(=O)N[C@@H](Cc1c[nH]c2ccccc12)C(=O)N[C@@H](CC(C)C)C(=O)N[C@@H](CC(C)C)C(=O)N[C@@H](CCC(=O)O)C(=O)NCC(=O)NCC(=O)N1CCC[C@H]1C(=O)N[C@@H](CO)C(=O)N[C@@H](CO)C(=O)NCC(=O)N[C@@H](C)C(=O)N1CCC[C@H]1C(=O)N1C[C@H](O)C[C@H]1C(=O)N1CCC[C@H]1C(=O)N[C@@H](CO)C(=O)NCC(=O)N[C@@H](CCC(=O)O)C(N)=O [Example 137]	0.04								
CC[C@H](C)[C@H](NC(=O)[C@H](Cc1ccccc1)NC(=O)[C@H](C)NC(=O)C(C)(C)NC(=O)[C@H](CCC(N)=O)NC(=O)[C@H](C)NC(=O)[C@H](CCCCNC(=O)COCCOCCNC(=O)CC[C@H](NC(=O)CCCCCCCCCCCCCCCCC(=O)O)C(=O)O)NC(=O)[C@H](CCCCN)NC(=O)[C@H](CC(=O)O)NC(=O)[C@H](CC(C)C)NC(=O)[C@](C)(CC(C)C)NC(=O)[C@H](CCCN)NC(=O)[C@H](CO)NC(=O)[C@H](Cc1ccccc1)NC(=O)[C@H](CC(=O)O)NC(=O)[C@H](CO)NC(=O)[C@@H](NC(=O)[C@H](Cc1ccccc1)NC(=O)[C@@H](NC(=O)CNC(=O)[C@H](CCC(N)=O)NC(=O)C(C)(C)NC(=O)[C@@H](N)Cc1ccc(O)cc1)[C@@H](C)O)[C@@H](C)O)C(=O)N[C@@H](CCC(=O)O)C(=O)N[C@@H](Cc1ccc(O)cc1)C(=O)N[C@@H](CC(C)C)C(=O)N[C@@H](CC(C)C)C(=O)N[C@@H](CCC(=O)O)C(=O)N[C@H](C)C(=O)NCC(=O)N1CCC[C@H]1C(=O)N[C@@H](CO)C(=O)N[C@@H](CO)C(=O)NCC(=O)N[C@@H](C)C(=O)N1CCC[C@H]1C(=O)N1CCC[C@H]1C(=O)N1CCC[C@H]1C(=O)N[C@@H](CO)C(=O)NCC(=O)N[C@H](C(=O)O)[C@@H](C)O [Example 213]	0.26								
H-Y[Aib]QGTFTSDFS[Orn][αMeL]LDKK([AEEA-γGlu-C18 diacid])AQ[Aib]AFIEYLLE[dA]GPSSGAPPPSGS [Example 212]	0.22								
H-Y[Aib]QGTFTSD[4Pal]SQ[αMeL]LD[Orn]K([Glu-γGlu-C18 diacid])AQ[αMe4Pal]AFIEYLIAGGPSSGAPPPSGSEE-NH2 [Example 1033]	0.14								
H-Y[Aib]QGT[αMePhe(2-F)]TSD[4Pal]SILLD[Orn]K([AEEA-γGlu-C18 diacid])AQ[αMe4Pal]EFI[dE][αMeY]LLEGGPSSGAPPPSGS-NH2 (C-terminus assumed) [Example 670]	0.46								
Y[Aib]QGTFTSDFSK[αMeL]LDKK([AEEA-γGlu-C20 diacid])AQQAFIEYLLA[Aib]GPSSGEPPPSEG-NH2 [Example 19]		2.35	1010	0.228	66.2	3.96	1310	52.4	72.6
B1		12.4	1510	0.218	29.1	2.7	324	87.6	72.5
B2		12.6	1550	0.255	63.8	3.68	686	81.8	76.2
B3		4.82	980	0.2	35.4	3.44	623	96.1	75.6
B4		5.42	532	0.246	81	2.94	592	41.9	64.7
B5		5.13	573	0.178	25.5	2.98	308	51.5	67.2
B6		9.66	1390	0.308	102	3.09	447	79.9	71.9
